How the values were obtained:
[1] = molecular target: T1, human PD-L1 on cell surface (human, UniProt Q9NZQ7 19-290); experiment: cell-based or functional assay
[2] = molecular target: T1, human PD-L1 on cell surface; experiment: flow cytometry on CHO cells expressing human PD-L1, fitted curve
Description: (§1) CHO cells expressing human or monkey PD-L1 and parent cells as a negative control were washed 3 times with PBS. 2.5×10⁵ detection cells and 100 μl of 3-fold serial dilutions of purified antibody with an initial concentration of 300 nM were added to a 96-well plate and incubated at 4° C. for 1 hr. […] Finally, the cells were washed 3 times with PBS, and the signal was read on FACS BD Calibur.

[3] = molecular target: T2, monkey PD-L1 on cell surface (monkey); experiment: flow cytometry on CHO cells expressing monkey PD-L1, fitted curve
T2 construct: whole, on cells; also called monkey PD-L1 cell line; CHO cells overexpressing monkey PD-L1
Description: as §1
Moreover, CHO cells overexpressing monkey PD-L1 were used to test the cross-recognition binding to monkey PD-L1 by the antibodies.

human PD-L1 protein [4] = molecular target: T3, human PD-L1 protein (human, UniProt Q9NZQ7 19-238, limits assumed); experiment: ELISA on human PD-L1 protein; antibody treated for 20 min at 70 C
T3 sequence (Q9NZQ7 19-238 limits assumed): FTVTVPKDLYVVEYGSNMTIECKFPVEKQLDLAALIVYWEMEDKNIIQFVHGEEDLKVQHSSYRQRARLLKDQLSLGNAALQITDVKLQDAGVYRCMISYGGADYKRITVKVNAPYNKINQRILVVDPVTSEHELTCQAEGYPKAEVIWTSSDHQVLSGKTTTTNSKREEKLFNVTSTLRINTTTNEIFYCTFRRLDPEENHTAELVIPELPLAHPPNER
Description: (§2) The antibody samples were treated for 20 min at various temperature gradients respectively, and then centrifuged to remove the pellet. Then the amount of remaining antibody was evaluated by ELISA. (The temperature gradient includes: room temperature, 30° C., 40° C., 50° C., 60° C., 70° C., […]) (FIG. 4)

human PD-L1 protein [5] = molecular target: T3, human PD-L1 protein; experiment: ELISA on human PD-L1 protein; antibody treated for 20 min (all overlapping curves)
Description: as §2

[6] = molecular target: T4, PD-L1-HIS recombinant protein (human, UniProt Q9NZQ7 19-238, limits assumed); experiment: SPR (Biacore 8K), antibody captured on chip, PD-L1-HIS analyte 2.5-80 nM, 1:1 binding model
T4 construct: not shown: His tag
T4 sequence (Q9NZQ7 19-238 limits assumed): as above
Description: The chip surface was equilibrated with HBS-EP buffer at a flow rate of 10 μl/min for 5 min, and then a 1:1 mixture of “NHS+EDC” was injected at a flow rate of 10 μl/min for 420 sec to activate the chip. The capture antibody (goat anti-murine IgG) diluted in 10 mM sodium acetate buffer was injected for about 420 sec at a flow rate of 10 μl/min for coupling, and finally ethanolamine was injected for 420 sec at a flow rate of 10 μl/min to block the surface.
Three pre-cycles were performed with the HBS-EP buffer as a sample to balance the chip to stabilize the baseline. The antibody diluted in HBS-EP buffer was injected for 30 sec at a flow rate of 10 μl/min (where the antibody-antigen binding signal was controlled to about 100 RU by adjusting the capture time between 0-5 min), and then the chip was equilibrated with the buffer for 1 min. The low-concentration antigen 2.5 nM PD-L1-HIS was injected at a flow rate of 30 μl/min for 240/300 seconds, to allow the antigen to bind to the antibody, and then the buffer was injected at a flow rate of 30 μl/min for 720/600 seconds for dissociation. 50 mM HCl were injected three times each for 15 s at a flow rate of 100 μl/min for regeneration, to complete one cycle. The antigen concentration was changed (such as 5 nM PD-L1-HIS) to carry out the cycle for measurement at a next gradient concentration until all gradient concentrations (2.5 nM, 5 nM, 10 nM, 20 nM, 40 nM, 80 nM PD-L1-HIS) and the replicate (such as 10 nM PD-L1-HIS) were tested.
The experimental data was double subtracted (minus the background values of the control channel and zero concentration), and fitted to the “1:1 binding” model in the Biacore 8K evaluation software. Biacore 8K was used to determine the affinity of the antibody to the PD-L1-HIS recombinant protein.

human PD-L1 protein [7] = molecular target: T3, human PD-L1 protein; experiment: ELISA on human PD-L1 protein; antibody kept at 40 C for 0 (D0), 7 (D7) or 14 (D14) days
Description: The antibody samples were treated separately at 40° C., and then centrifuged to remove the pellet. Then the amount of remaining antibody was evaluated by ELISA. (test after treatment at 40° C. for 7 days (D7) and 14 days (D14) separately; for each test, the untreated sample (D0) stored at −80° C. is used as a control) (FIG. 3)

biotin-labeled PD-L1-Fc [8] = molecular target: T5, biotin-labeled PD-L1-Fc (human, UniProt Q9NZQ7 19-238, limits assumed, biotin-labeled (sites not given)); experiment: ELISA: biotin-PD-L1-Fc binding to coated human PD-1 with titrated antibody; enhancement of PD-L1/PD-1 binding
T5 construct: not shown: Fc part
T5 sequence (Q9NZQ7 19-238 limits assumed): as above
Description: (§3) The ELISA plate (Nunc) was coated with 100 μl/well of 0.5 μg/ml recombinant human PD-1 protein in PBS at 4° C. overnight. The plate was washed with PBS-T (0.05% Tween), and blocked with 200 μl/well of PBST containing 1% BSA at 37° C. for 0.5 hr. Then the blocking buffer was discarded, and 50 μl of 10 μg/ml purified antibody to be tested was added to the first test well. 3-fold serial dilutions were made, and a total of 11 test concentration gradients were given. […] The plate was washed 3 times with PBST, and incubated with 100 μl/well of Streptavidin-HRP (SA-HRP, GenScript) at 37° C. for 10 min. Finally, the plate was washed 5 times with PBST, and then a TMB developing solution (GenScript) was added and incubated at room temperature for 15 min in the dark. The reaction was terminated by adding 50 μl of 1M HCl stop solution (Sigma). The plate was read at 450 nm on a microplate reader.

biotin-labeled PD-L1-Fc [9] = molecular target: T5, biotin-labeled PD-L1-Fc; experiment: ELISA: biotin-PD-L1-Fc binding to coated human PD-1 with titrated antibody, OD 450 nm, fitted curve; enhancement
Description: as §3

biotin-labeled PD-L1-Fc [10] = molecular target: T5, biotin-labeled PD-L1-Fc; experiment: flow cytometry: biotin-PD-L1-Fc binding to CHO cells expressing human PD-1 with titrated antibody, fitted curve; enhancement
Description: (§4) In the FACS test, CHO cells expressing human PD-1 and parent cells as a negative control were washed 3 times with PBS. 2.5×10⁵ detection cells and 50 μl of 3-fold serial dilutions of purified antibody with an initial concentration of 300 nM were added to a 96-well plate. […] Then the cells were washed 3 times with PBS, 100 μl of iFluor647-labeled streptavidin (1 μg/ml) was added, and the cells were incubated at 4° C. for 45 min. Finally, the cells were washed 3 times with PBS, and the signal was read on FACS BD Calibur.

biotin-labeled PD-L1-Fc [11] = molecular target: T5, biotin-labeled PD-L1-Fc; experiment: flow cytometry: biotin-PD-L1-Fc binding to CHO cells expressing human PD-1 with titrated antibody; enhancement of PD-L1/PD-1 binding
Description: as §4

human PD-L1 protein [12] = molecular target: T3, human PD-L1 protein; experiment: ELISA on the antigen (human PD-L1); antibody untreated (0), after oxidative stress (AAPH, 24 h) or deamidation stress (pH 9.0, 48 h); curves not told apart

T1 sequence (Q9NZQ7 19-290): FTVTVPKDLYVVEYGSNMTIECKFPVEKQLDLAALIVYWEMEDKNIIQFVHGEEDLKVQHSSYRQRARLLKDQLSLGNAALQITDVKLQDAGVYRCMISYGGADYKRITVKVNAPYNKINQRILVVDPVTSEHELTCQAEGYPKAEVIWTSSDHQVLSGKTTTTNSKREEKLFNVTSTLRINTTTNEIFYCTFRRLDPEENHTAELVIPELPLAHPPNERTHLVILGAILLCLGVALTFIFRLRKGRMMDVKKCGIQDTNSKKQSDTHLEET

B1: AH02029 (antibody, human IgG1, V domains shown)
VH: QVQLQESGPGLVKPSQTLSLTCTVTGYSITSGYTWHWIRQHPGKGLEWIGYIHYSGSTKYNPSLKSRVSISRDTSKNQFSLKLSSVTAADTAVYYCARNSLFASWGQGTLVTVSS
VL: DIVLTQSPDSLAVSLGERATINCRASESVDTYGDSFMHWYQQKPGQPPKLLIYRASNLESGVPDRFSGSGSGTDFTLTISSLQAEDVAVYYCQQSNEAPYTFGGGTKLEIK
notes: also called mPD-L1Ab-5BM clone AH02029
[1]
  Bottom (best-fit value) of IL-2 release, mixed lymphocyte reaction: 1350
  EC50 (µg/ml) of IL-2 release, mixed lymphocyte reaction: 0.0293 µg/mL
  LogEC50 (best-fit value) of IL-2 release, mixed lymphocyte reaction: -1.53
  Span (best-fit value) of IL-2 release, mixed lymphocyte reaction: 1020
  Top (best-fit value) of IL-2 release, mixed lymphocyte reaction: 2370
[2]
  EC50: 0.478 nM
  LogEC50: -0.321
[3]
  EC50: 3.4 nM
  LogEC50: 0.532
Human PD-L1 protein [4]
  EC50 (read off the curve): ~0.04 µg/mL
Human PD-L1 protein [5]
  EC50 (read off the curve): ~0.01 µg/mL
[6]
  Kd: 1.57 nM
  koff: 0.000334 s⁻¹
  kon: 213000 M⁻¹ s⁻¹
Human PD-L1 protein [7]
  EC50 (read off the curve): ~0.01 µg/mL
biotin-labeled PD-L1-Fc [8]
  EC50: 0.017 µg/mL
biotin-labeled PD-L1-Fc [9]
  LogEC50: 1.23
biotin-labeled PD-L1-Fc [10]
  LogEC50: 1.59
biotin-labeled PD-L1-Fc [11]
  EC50: 38.7 nM
Human PD-L1 protein [12]
  EC50 (read off the curve): ~0.02 µg/mL

Reference: patent publication US20220073618A1 (NANJING GENSCRIPT BIOTECH, published 2022)
